Publication PMC9482650, “Quantitative fragmentomics allow affinity mapping of interactomes” (Nature Communications, 2022)

Key:
Assay in all cases: holdup assay
Set-up in all cases: key: below the threshold = too weak to quantify, mostly under pKd 3.1 to 4
Conditions in all cases: plain residues with an end cap or a label only (N-terminal biotin on a linker: gsgsgs; C-terminal amide)
[1] = target: MAGI2_5, Q86UL8
[2] = target: DLG2_2, Q15700
[3] = target: NHERF2_2, Q15599
[4] = target: GRID2IP_2, A4D2P6
Sequence of GRID2IP_2, A4D2P6 (A4D2P6 272-370): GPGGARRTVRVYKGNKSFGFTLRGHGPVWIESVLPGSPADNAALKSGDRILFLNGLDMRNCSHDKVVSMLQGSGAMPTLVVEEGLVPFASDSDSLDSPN

[5] = target: T1, SNTA1, Q13424
T1 sequence (Q13424 82-180, limits assumed, looked up): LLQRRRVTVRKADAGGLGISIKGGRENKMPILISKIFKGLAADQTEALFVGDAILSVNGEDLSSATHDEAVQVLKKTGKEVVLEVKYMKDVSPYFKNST

[6] = target: DLG4_3, P78352
Sequence of DLG4_3, P78352 (P78352 306-403): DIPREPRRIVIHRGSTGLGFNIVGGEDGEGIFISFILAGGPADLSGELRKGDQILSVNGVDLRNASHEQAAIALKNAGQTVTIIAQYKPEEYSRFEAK

[7] = target: T2, CARD11, Q9BXL7
T2 sequence (Q9BXL7 662-765, limits assumed, looked up): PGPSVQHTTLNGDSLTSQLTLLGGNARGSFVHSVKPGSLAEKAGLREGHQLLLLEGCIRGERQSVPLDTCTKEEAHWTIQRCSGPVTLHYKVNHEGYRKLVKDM

[8] = target: GORASP2, Q9H8Y8
[9] = target: T3, SNTG2, Q9NY99
T3 sequence (Q9NY99 68-166, limits assumed, looked up): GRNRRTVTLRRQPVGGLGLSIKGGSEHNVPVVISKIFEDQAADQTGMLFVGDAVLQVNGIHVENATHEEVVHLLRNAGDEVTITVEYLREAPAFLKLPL

[10] = target: AHNAK1, Q09666
Sequence of AHNAK1, Q09666 (Q09666 4-100): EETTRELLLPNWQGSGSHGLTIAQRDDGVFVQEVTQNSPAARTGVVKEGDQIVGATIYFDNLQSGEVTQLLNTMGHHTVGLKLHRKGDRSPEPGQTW

[11] = target: T4, APBA3_1, O96018
T4 sequence (O96018 389-490, limits assumed, looked up): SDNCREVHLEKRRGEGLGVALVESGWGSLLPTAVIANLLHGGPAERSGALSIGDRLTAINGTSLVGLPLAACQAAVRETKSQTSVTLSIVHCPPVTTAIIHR

[12] = target: T5, LIN7C, Q9NUP9
T5 sequence (Q9NUP9 88-185, limits assumed, looked up): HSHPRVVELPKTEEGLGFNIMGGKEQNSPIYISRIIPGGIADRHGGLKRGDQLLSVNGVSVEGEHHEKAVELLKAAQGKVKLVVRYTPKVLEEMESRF

[13] = target: HTRA2, O43464
Sequence of HTRA2, O43464 (O43464 355-458): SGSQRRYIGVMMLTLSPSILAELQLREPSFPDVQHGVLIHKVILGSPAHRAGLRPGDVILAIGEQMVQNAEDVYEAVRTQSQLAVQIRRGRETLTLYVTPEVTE

[14] = target: LDB3, O75112
Sequence of LDB3, O75112 (O75112 1-94): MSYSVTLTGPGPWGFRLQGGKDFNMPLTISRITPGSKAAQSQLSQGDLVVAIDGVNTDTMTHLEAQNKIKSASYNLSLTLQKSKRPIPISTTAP

[15] = target: T6, SYNJ2BP, P57105
T6 sequence (P57105 8-110, limits assumed, looked up): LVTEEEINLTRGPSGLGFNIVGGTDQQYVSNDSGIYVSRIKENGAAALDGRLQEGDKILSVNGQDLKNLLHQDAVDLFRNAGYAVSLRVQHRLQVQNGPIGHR

[16] = target: T7, GRIP1_7, Q9Y3R0
T7 sequence (Q9Y3R0 999-1096, limits assumed, looked up): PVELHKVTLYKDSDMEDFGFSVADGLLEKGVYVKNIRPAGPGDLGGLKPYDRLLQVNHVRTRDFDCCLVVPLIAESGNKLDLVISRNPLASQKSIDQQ

[17] = target: MAGI2_2, Q86UL8
Sequence of MAGI2_2, Q86UL8 (Q86UL8 410-522): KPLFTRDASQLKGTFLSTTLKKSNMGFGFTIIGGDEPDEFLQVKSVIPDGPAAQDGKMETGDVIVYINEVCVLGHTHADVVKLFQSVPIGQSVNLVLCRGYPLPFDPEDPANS

[18] = target: FRMPD2_2, Q68DX3
Sequence of FRMPD2_2, Q68DX3 (Q68DX3 944-1038): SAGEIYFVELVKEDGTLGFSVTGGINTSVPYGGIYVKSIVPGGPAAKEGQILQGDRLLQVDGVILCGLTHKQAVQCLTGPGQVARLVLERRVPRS

[19] = target: GRIP2_7, Q9C0E4
Sequence of GRIP2_7, Q9C0E4 (Q9C0E4 934-1023): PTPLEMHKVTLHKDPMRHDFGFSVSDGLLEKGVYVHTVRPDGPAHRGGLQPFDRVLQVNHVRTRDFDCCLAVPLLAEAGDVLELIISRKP

[20] = target: GORASP1, Q9BQQ3
Sequence of GORASP1, Q9BQQ3 (Q9BQQ3 1-208): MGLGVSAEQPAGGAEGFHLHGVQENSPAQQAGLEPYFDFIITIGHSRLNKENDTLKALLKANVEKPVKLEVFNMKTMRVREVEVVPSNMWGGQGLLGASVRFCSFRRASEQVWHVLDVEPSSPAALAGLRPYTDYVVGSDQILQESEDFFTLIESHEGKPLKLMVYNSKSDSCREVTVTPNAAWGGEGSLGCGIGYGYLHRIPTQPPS

[21] = target: GRID2IP_1, A4D2P6
Sequence of GRID2IP_1, A4D2P6 (A4D2P6 1-87): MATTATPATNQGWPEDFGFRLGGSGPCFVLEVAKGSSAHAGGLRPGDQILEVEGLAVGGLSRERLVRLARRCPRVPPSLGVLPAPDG

[22] = target: T8, TIAM2, Q8IVF5
T8 sequence (Q8IVF5 885-986, limits assumed, looked up): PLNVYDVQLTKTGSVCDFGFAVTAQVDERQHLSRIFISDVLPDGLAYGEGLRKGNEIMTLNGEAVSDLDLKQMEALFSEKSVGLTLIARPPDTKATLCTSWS

[23] = target: MAST1, Q9Y2H9
Sequence of MAST1, Q9Y2H9 (Q9Y2H9 962-1065): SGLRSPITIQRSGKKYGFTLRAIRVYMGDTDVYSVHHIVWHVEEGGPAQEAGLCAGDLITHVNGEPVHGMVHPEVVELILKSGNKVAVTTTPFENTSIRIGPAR

[24] = target: T9, MPDZ_12, O75970
T9 sequence (O75970 1857-1958, limits assumed, looked up): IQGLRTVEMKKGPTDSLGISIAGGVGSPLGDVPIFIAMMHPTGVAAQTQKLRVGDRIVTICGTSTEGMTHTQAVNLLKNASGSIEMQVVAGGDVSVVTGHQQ

[25] = target: DLG1_3, Q12959
Sequence of DLG1_3, Q12959 (Q12959 457-571): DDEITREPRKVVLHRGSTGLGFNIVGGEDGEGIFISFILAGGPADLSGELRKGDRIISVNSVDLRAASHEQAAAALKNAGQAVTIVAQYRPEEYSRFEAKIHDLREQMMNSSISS

[26] = target: SCRIB_1, Q14160
Sequence of SCRIB_1, Q14160 (Q14160 718-814): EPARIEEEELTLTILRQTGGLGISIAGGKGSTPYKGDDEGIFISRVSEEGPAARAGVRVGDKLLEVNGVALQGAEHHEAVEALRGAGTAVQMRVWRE

[27] = target: T10, HTRA3, P83110
T10 sequence (P83110 354-453, limits assumed, looked up): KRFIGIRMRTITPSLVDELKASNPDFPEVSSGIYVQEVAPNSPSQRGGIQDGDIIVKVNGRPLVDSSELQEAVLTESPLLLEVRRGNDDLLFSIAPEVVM

[28] = target: GRIP2_5, Q9C0E4
Sequence of GRIP2_5, Q9C0E4 (Q9C0E4 544-642): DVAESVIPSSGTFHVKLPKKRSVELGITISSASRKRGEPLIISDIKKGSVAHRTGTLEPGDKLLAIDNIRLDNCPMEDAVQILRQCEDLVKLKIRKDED

Sequence of DLG2_2, Q15700 (Q15700 189-283): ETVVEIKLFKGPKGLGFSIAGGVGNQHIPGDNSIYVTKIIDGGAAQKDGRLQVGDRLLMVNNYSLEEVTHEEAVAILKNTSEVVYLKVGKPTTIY
Sequence of NHERF2_2, Q15599 (Q15599 142-238): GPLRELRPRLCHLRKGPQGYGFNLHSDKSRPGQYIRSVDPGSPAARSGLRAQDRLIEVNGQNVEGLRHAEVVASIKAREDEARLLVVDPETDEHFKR
Sequence of MAGI2_5, Q86UL8 (Q86UL8 915-1017): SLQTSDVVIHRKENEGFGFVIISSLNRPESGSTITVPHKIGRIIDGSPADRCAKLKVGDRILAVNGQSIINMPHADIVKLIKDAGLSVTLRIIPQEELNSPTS

- pKd [1]: below the threshold
- pKd [2]: below the threshold
- pKd [3]: below the threshold
- pKd [4]: below the threshold
- pKd [5]: below the threshold
- pKd [6]: below the threshold
- pKd [7]: below the threshold
- pKd [8]: below the threshold
- pKd [9]: below the threshold
- pKd [10]: below the threshold
- pKd [11]: below the threshold
- pKd [12]: 4.12
- pKd [13]: below the threshold
- pKd [14]: below the threshold
- pKd [15]: below the threshold
- pKd [16]: below the threshold
- pKd [17]: below the threshold
- pKd [18]: below the threshold
- pKd [19]: below the threshold
- pKd [20]: below the threshold
- pKd [21]: below the threshold
- pKd [22]: 3.85
- pKd [23]: below the threshold
- pKd [24]: below the threshold
- pKd [25]: below the threshold
- pKd [26]: below the threshold
- pKd [27]: below the threshold
- pKd [28]: below the threshold
Binder: VSVDDVRSTSQGLSSY [DFNB31_int, Q9P202]
